We go through one molecule from article doi:10.1101/2025.08.03.668247, “The structure of Egalitarian in complex with the K10 mRNA localization signal reveals a modular binding surface required for function”.

One data set deals with T1, GST-Egl512-819 (Drosophila melanogaster, UniProt Q9W1K4 512-819).
T1 sequence: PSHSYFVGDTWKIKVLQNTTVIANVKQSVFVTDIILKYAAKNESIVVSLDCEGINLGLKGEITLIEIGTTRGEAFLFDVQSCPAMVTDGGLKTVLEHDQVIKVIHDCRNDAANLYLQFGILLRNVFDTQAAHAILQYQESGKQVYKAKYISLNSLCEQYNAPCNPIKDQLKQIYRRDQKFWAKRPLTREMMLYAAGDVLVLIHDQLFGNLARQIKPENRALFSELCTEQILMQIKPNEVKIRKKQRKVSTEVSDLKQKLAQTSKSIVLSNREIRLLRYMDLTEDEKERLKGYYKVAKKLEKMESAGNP
The experiment in a line: fluorescence anisotropy; FA: 20 mM HEPES-NaOH pH 7.5, 100 mM NaCl, 10% glycerol, 20 C, 10 nM FAM-RNA; competition: 150 nM Egl512-819 + 10 nM FAM-K10 TLS, same buffer. The conditions noted are these: protein: recombinant; tags: N-terminal GST (TEV site); label: 5'-6-FAM; hairpin with two bulges. In general terms: In fluorescence polarisation assays a small probe gives low polarisation when free and higher when bound to something large.

The target of another data set is T2, K758E (Drosophila melanogaster, UniProt Q9W1K4 512-819, K758E).
T2 sequence: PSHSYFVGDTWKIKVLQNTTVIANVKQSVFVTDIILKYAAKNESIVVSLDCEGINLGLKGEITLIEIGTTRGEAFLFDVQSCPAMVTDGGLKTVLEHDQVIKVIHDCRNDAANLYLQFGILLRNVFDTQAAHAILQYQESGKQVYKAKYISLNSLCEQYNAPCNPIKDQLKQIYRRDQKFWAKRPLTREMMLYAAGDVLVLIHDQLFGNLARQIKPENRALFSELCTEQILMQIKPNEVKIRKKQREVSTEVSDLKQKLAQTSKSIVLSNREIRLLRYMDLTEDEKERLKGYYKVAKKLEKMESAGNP
The data set is described as above. The conditions noted are these: protein: recombinant; tags: N-terminal GST; label: 5'-6-FAM; hairpin with two bulges.

In a further data set the target is T3, K659E (Drosophila melanogaster, UniProt Q9W1K4 512-819, K659E).
T3 sequence: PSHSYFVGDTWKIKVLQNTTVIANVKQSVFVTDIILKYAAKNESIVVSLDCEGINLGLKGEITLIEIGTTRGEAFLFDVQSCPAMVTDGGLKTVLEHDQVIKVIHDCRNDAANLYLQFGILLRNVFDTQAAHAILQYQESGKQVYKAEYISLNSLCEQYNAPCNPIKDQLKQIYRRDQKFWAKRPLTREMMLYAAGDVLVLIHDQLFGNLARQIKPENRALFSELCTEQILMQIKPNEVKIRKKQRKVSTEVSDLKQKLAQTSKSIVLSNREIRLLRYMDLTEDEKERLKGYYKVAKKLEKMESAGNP
Described as above. The conditions noted are these: protein: recombinant; tags: N-terminal GST; label: 5'-6-FAM; hairpin with two bulges.

A further data set addresses T4, R785E (Drosophila melanogaster, UniProt Q9W1K4 512-819, R785E).
T4 sequence: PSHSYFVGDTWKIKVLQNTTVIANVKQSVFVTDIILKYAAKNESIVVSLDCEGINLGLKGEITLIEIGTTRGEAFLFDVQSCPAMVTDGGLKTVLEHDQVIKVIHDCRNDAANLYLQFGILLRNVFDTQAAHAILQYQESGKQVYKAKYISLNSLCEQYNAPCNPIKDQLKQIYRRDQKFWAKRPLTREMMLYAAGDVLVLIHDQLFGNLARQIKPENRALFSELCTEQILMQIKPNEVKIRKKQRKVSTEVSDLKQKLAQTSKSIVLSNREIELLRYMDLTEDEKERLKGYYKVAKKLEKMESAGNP
Described as above. The note with it: protein: recombinant; tags: N-terminal GST; label: 5'-6-FAM; hairpin with two bulges.

For a further data set, the target named is T5, R753E (Drosophila melanogaster, UniProt Q9W1K4 512-819, R753E).
T5 sequence: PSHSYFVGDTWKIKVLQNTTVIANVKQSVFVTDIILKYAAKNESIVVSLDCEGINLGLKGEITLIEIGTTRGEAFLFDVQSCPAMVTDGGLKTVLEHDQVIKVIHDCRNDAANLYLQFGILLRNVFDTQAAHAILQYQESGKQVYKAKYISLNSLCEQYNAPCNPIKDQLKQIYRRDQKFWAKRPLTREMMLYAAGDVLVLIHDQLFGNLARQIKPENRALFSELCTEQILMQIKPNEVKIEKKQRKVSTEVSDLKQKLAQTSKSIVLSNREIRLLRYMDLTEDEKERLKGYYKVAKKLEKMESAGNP
The description is as above. The conditions noted are these: protein: recombinant; tags: N-terminal GST; label: 5'-6-FAM; hairpin with two bulges.

The next data set addresses T6, K659E/K754E/R788E (Drosophila melanogaster, UniProt Q9W1K4 512-819, K659E;K754E;R788E).
T6 sequence: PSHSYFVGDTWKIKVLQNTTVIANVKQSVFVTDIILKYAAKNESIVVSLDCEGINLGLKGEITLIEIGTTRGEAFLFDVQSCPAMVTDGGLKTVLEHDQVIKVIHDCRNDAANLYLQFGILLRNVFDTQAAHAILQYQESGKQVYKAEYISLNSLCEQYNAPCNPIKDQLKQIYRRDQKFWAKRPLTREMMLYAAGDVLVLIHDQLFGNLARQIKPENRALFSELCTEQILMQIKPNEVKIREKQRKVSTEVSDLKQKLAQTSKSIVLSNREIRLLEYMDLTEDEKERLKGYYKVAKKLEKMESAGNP
The experiment in a line: fluorescence anisotropy; binding not detected; FA: 20 mM HEPES-NaOH pH 7.5, 100 mM NaCl, 10% glycerol, 20 C, 10 nM FAM-RNA; competition: 150 nM Egl512-819 + 10 nM FAM-K10 TLS, same buffer. The conditions noted are these: protein: recombinant; tags: N-terminal GST; label: 5'-6-FAM; hairpin with two bulges.

A word on the Kd: it is a measure of binding affinity in units of concentration.

As for CUUGAUUGUAUUUUUAAAUUAAUUCUUAAAAACUACAAAUUAAG (structured_RNA) [K10 TLS (FAM)], the Kd in the data set with GST-Egl512-819 came to 130 ± 6 nM; with K758E, 380 ± 65 nM; in the data set with K659E it was 418 ± 40 nM; in the data set with R785E, 210 ± 5 nM; in the data set with R753E it was 185 ± 9 nM. Besides, the binding result in the data set with K659E/K754E/R788E is recorded as “no binding”.
